Experimental data as given in patent US20230357364A1 (INTERNATIONAL AIDS VACCINE INITIATIVE, published 2023).

What was measured:
Experiment in all cases: cell-based or functional assay
[1] = biological target: SARS-CoV-2 spike V483A (pseudovirus) (SARS-CoV-2, UniProt P0DTC2 14-1273)
[2] = biological target: SARS-CoV-2 spike G476S (pseudovirus) (SARS-CoV-2, UniProt P0DTC2 14-1273)
[3] = biological target: T1, SARS-CoV-2 spike D614G (pseudovirus) (SARS-CoV-2, UniProt P0DTC2 14-1273)
[4] = biological target: T1, SARS-CoV-2 spike D614G (pseudovirus); remark: listed apart in the source
[5] = biological target: SARS-CoV-2 spike V367F (pseudovirus) (SARS-CoV-2, UniProt P0DTC2 14-1273)

Binder | neutralization IC50 [1] [ng/mL] | neutralization IC50 [2] [ng/mL] | neutralization IC50 [3] [ng/mL] | PSV in HeLa-ACE2 cells IC50 [4] [ng/mL] | neutralization IC50 [5] [ng/mL]
L6.dP04A03 (antibody, V domains shown) VH: QVQLVQSGAEVKKPGSSVKVSCKASGGTFSSSAISWVRQAPGQGLEWMGGIIPILDITNYAQKFQGRVTITADKSTSTAFMELSSLRSEDTAVYYCALRNQWDLLVYWGQGTLVTVSS VL: not shown | 160 | 84 | 24 |  | 
L6.P4A3.1 (antibody, V domains shown) VH: QVQLVQSGAEVKKPGSSVKVSCKASGGIFSSSAISWVRQAPGQGLEWMGGIIPILDISNYAQKFQGRVTITADKSTSTAFMELSSLRSEDTAVYYCALTNQWDLLVYWGQGTLVTVSS VL: EIVLTQSPGTLSLSPGERATLSCRASQRVSSSYLAWYQQKPGQAPRLLIYGAESRATGIPDRFSGSGSGTDFTLTISRLEPEDFAVYYCQHYGSSLWTFGQGTKLEIK |  |  |  | 13 | 
L6.dP04E05 (antibody, V domains shown, human IgG1) VH: EVQLVESGGGLVQPGRSLRLSCAASGFTFDDYAMHWVRQAPGKGLEWVSGISWNSDNIGYADSVKGRFTVSRDNAKNSLYLQMNSLRAEDTALYYCTKDIHRKNDYYDILTGYYRVRYYYYAMDVWGQGTTVTVSS VL: QSVLTQPPSASGSPGQSVTISCTGTSSDAGGYNYVSWYQQHPGKAPKLMIYEVIKRPSGVPDRFSGSKSGNTASLTVSGLQAEDEADYYCSSFAGTSVVFGGGTKLTVL | 0.55 | 0.16 | 0.52 | 8 | 0.07
L6.dP03H10 (antibody, V domains shown) VH: QVQLVQSGAEVKKPGSSVKVSCKASGGTFSIYAITWVRQAPGQGLEWMGGIIPIIGTANYAQKFQGRVTITADKSTSTAYMELSSLRSEDTAVYYCARDFRYCSSTRCYFWFDPWGQGTLVTVSS VL: DIQMTQSPSSLSASVGDRVTITCRASQNISSYLNWYQQEAGKAPKLLIYAASSLQSGVPSRFSGSGSGTDFTLTISSLQPEDFATYYCQQSYSTPRTFGQGTKVDIK | 1.9 | 0.08 | 1.9 |  | 0.25
L6.dP02E05 (antibody, V domains shown, human IgG1) VH: QVQLVQSGSELKKPGASVKVSCKASGYTFATYALNWVRQAPGQGLEWMGWVNTNTGSPTYAQGFTGRFVFSFDTSVSTAYLQIRTLKAEDTAVYYCAVYYYDSGSPGWFDPWGQGTLVTVSS VL: DIQLTQSPSSLSASVGDRVTITCRASQTASSYLNWYQQKPGKAPNLLIYAASSLQSGVPSRFSGSGSVTDFTLTISSLQPEDFATYYCQQSYSTPPTFGQGTKVDIK | 3.9 |  | 3.9 |  | 0.04
